The values below come from patent US20150337049A1 (Genmab, published 2015).

For experiment [1], the target named is T1, C1q (from 3% pooled human serum) (human, UniProt P02745 23-245; P02746 28-253; P02747 29-245).
T1 construct: Native C1q of pooled human serum, detected with rabbit anti-human C1q
Briefly: ELISA, antibody coated, 3% pooled human serum, anti-C1q detection. As for the experimental part: Plates were washed and blocked with PBS supplemented with 0.025% Tween 20 and 0.1% gelatine. […] Detection was performed by addition of 1 mg/mL 2,2′-azino-bis(3-ethylbenzothiazoline-6-sulfonic acid) (ABTS; Roche, Mannheim, Germany) for about 30 min. The reaction was stopped by the addition of 100 μL 2% oxalic acid. Absorbance was measured at 405 nm in a microplate reader (Biotek, Winooski, Vt.). Log transformed data were analyzed by fitting sigmoidal dose-response curves with variable slope using GraphPad Prism software.

The target of experiment [2] is T2, HER2 on HER2-positive AU565 cells (human, UniProt P04626 23-1255).
T2 construct: whole, on cells
Briefly: FACS, AU565 cells. As for the experimental part:
Cells (1×10^5 cells/well) were incubated in polystyrene 96-well round-bottom plates (Greiner bio-one 650101) with serial dilutions of antibody preparations (range 2 to 10000 ng/mL in 4-fold dilutions for Jurkat cells and range 1 to 3000 ng/mL in 4-fold dilutions for on AU565 cells) in 100 μL PBS/0.1% BSA/0.02% azide at 4° C. for 30 min.
After washing twice in PBS/0.1% BSA/0.02% azide, cells were incubated in 100 μL with secondary antibody at 4° C. for 30 min. As a secondary antibody, R-Phycoerythrin (PE)-conjugated goat-anti-human IgG F(ab′)₂ (109-116-098, Jackson ImmunoResearch Laboratories, Inc., West Grove, Pa.) diluted 1/100 in PBS/0.1% BSA/0.02% azide, was used for all experiments. Next, cells were washed twice in PBS/0.1% BSA/0.02% azide, resuspended in 150 μL PBS/0.1% BSA/0.02% azide and analyzed on a FACS CantoII (BD Biosciences). Binding curves were analyzed using non-linear regression (sigmoidal dose-response with variable slope) using GraphPad Prism V5.04 software (GraphPad Software, San Diego, Calif., USA).

B1: bsIgG1-CD3×HER2-DANQ (IgG1-huCLB-T3/4×HER2-169 with D265A/N297Q) (bispecific antibody)
heavy 1: EVQLVESGGGLVKPGGSLRLSCAASGFTFSSYGMFWVRQAPGKGLEWVATISRYSRYIYYPDSVKGRFTISRDNAKNSLYLQMNSLRAEDTAVYYCARRPLYGSSPDYWGQGTLVTVSSASTKGPSVFPLAPSSKSTSGGTAALGCLVKDYFPEPVTVSWNSGALTSGVHTFPAVLQSSGLYSLSSVVTVPSSSLGTQTYICNVNHKPSNTKVDKRVEPKSCDKTHTCPPCPAPELLGGPSVFLFPPKPKDTLMISRTPEVTCVVVAVSHEDPEVKFNWYVDGVEVHNAKTKPREEQYQSTYRVVSVLTVLHQDWLNGKEYKCKVSNKALPAPIEKTISKAKGQPREPQVYTLPPSREEMTKNQVSLTCLVKGFYPSDIAVEWESNGQPENNYKTTPPVLDSDGSFLLYSKLTVDKSRWQQGNVFSCSVMHEALHNHYTQKSLSLSPGK
VL 1: EIVLTQSPATLSLSPGERATLSCSASSSVTYVHWYQQKPGQAPRLLIYDTSKLASGIPARFSGSGSGTDFTLTISSLEPEDFAVYYCFQGSGYPLTFGSGTKLEMR
heavy 2: QVQLVQSGAEVKKPGASVKVSCKASGYTFTNYGISWVRQAPGQGLEWMGWLSAYSGNTIYAQKLQGRVTMTTDTSTTTAYMELRSLRSDDTAVYYCARDRIVVRPDYFDYWGQGTLVTVSSASTKGPSVFPLAPSSKSTSGGTAALGCLVKDYFPEPVTVSWNSGALTSGVHTFPAVLQSSGLYSLSSVVTVPSSSLGTQTYICNVNHKPSNTKVDKRVEPKSCDKTHTCPPCPAPELLGGPSVFLFPPKPKDTLMISRTPEVTCVVVAVSHEDPEVKFNWYVDGVEVHNAKTKPREEQYQSTYRVVSVLTVLHQDWLNGKEYKCKVSNKALPAPIEKTISKAKGQPREPQVYTLPPSREEMTKNQVSLTCLVKGFYPSDIAVEWESNGQPENNYKTTPPVLDSDGSFFLYSRLTVDKSRWQQGNVFSCSVMHEALHNHYTQKSLSLSPGK
VL 2: EIVLTQSPATLSLSPGERATLSCRASQSVSSYLAWYQQKPGQAPRLLIYDASNRATGIPARFSGSGSGTDFTLTISSLEPEDFAVYYCQQRSNWPRTFGQGTKVEIK
Turning to B1, the figures for the binding result in experiment [1] and in experiment [2] were “no binding (tested: coated at 7-30000 ng/mL)” and “binds”, respectively.

B2: bsIgG1-CD3×HER2-LFLE (IgG1-huCLB-T3/4×HER2-169 with L234F/L235E) (bispecific antibody)
heavy 1: EVQLVESGGGLVKPGGSLRLSCAASGFTFSSYGMFWVRQAPGKGLEWVATISRYSRYIYYPDSVKGRFTISRDNAKNSLYLQMNSLRAEDTAVYYCARRPLYGSSPDYWGQGTLVTVSSASTKGPSVFPLAPSSKSTSGGTAALGCLVKDYFPEPVTVSWNSGALTSGVHTFPAVLQSSGLYSLSSVVTVPSSSLGTQTYICNVNHKPSNTKVDKRVEPKSCDKTHTCPPCPAPEFEGGPSVFLFPPKPKDTLMISRTPEVTCVVVDVSHEDPEVKFNWYVDGVEVHNAKTKPREEQYNSTYRVVSVLTVLHQDWLNGKEYKCKVSNKALPAPIEKTISKAKGQPREPQVYTLPPSREEMTKNQVSLTCLVKGFYPSDIAVEWESNGQPENNYKTTPPVLDSDGSFLLYSKLTVDKSRWQQGNVFSCSVMHEALHNHYTQKSLSLSPGK
VL 1: EIVLTQSPATLSLSPGERATLSCSASSSVTYVHWYQQKPGQAPRLLIYDTSKLASGIPARFSGSGSGTDFTLTISSLEPEDFAVYYCFQGSGYPLTFGSGTKLEMR
heavy 2: QVQLVQSGAEVKKPGASVKVSCKASGYTFTNYGISWVRQAPGQGLEWMGWLSAYSGNTIYAQKLQGRVTMTTDTSTTTAYMELRSLRSDDTAVYYCARDRIVVRPDYFDYWGQGTLVTVSSASTKGPSVFPLAPSSKSTSGGTAALGCLVKDYFPEPVTVSWNSGALTSGVHTFPAVLQSSGLYSLSSVVTVPSSSLGTQTYICNVNHKPSNTKVDKRVEPKSCDKTHTCPPCPAPEFEGGPSVFLFPPKPKDTLMISRTPEVTCVVVDVSHEDPEVKFNWYVDGVEVHNAKTKPREEQYNSTYRVVSVLTVLHQDWLNGKEYKCKVSNKALPAPIEKTISKAKGQPREPQVYTLPPSREEMTKNQVSLTCLVKGFYPSDIAVEWESNGQPENNYKTTPPVLDSDGSFFLYSRLTVDKSRWQQGNVFSCSVMHEALHNHYTQKSLSLSPGK
VL 2: EIVLTQSPATLSLSPGERATLSCRASQSVSSYLAWYQQKPGQAPRLLIYDASNRATGIPARFSGSGSGTDFTLTISSLEPEDFAVYYCQQRSNWPRTFGQGTKVEIK
Regarding B2, the binding result was “no binding (tested: coated at 7-30000 ng/mL)” in experiment [1] and “binds” in experiment [2].

B3: bsIgG1-CD3×HER2-LALA (IgG1-huCLB-T3/4×HER2-169 with L234A/L235A) (bispecific antibody)
heavy 1: EVQLVESGGGLVKPGGSLRLSCAASGFTFSSYGMFWVRQAPGKGLEWVATISRYSRYIYYPDSVKGRFTISRDNAKNSLYLQMNSLRAEDTAVYYCARRPLYGSSPDYWGQGTLVTVSSASTKGPSVFPLAPSSKSTSGGTAALGCLVKDYFPEPVTVSWNSGALTSGVHTFPAVLQSSGLYSLSSVVTVPSSSLGTQTYICNVNHKPSNTKVDKRVEPKSCDKTHTCPPCPAPEAAGGPSVFLFPPKPKDTLMISRTPEVTCVVVDVSHEDPEVKFNWYVDGVEVHNAKTKPREEQYNSTYRVVSVLTVLHQDWLNGKEYKCKVSNKALPAPIEKTISKAKGQPREPQVYTLPPSREEMTKNQVSLTCLVKGFYPSDIAVEWESNGQPENNYKTTPPVLDSDGSFLLYSKLTVDKSRWQQGNVFSCSVMHEALHNHYTQKSLSLSPGK
VL 1: EIVLTQSPATLSLSPGERATLSCSASSSVTYVHWYQQKPGQAPRLLIYDTSKLASGIPARFSGSGSGTDFTLTISSLEPEDFAVYYCFQGSGYPLTFGSGTKLEMR
heavy 2: QVQLVQSGAEVKKPGASVKVSCKASGYTFTNYGISWVRQAPGQGLEWMGWLSAYSGNTIYAQKLQGRVTMTTDTSTTTAYMELRSLRSDDTAVYYCARDRIVVRPDYFDYWGQGTLVTVSSASTKGPSVFPLAPSSKSTSGGTAALGCLVKDYFPEPVTVSWNSGALTSGVHTFPAVLQSSGLYSLSSVVTVPSSSLGTQTYICNVNHKPSNTKVDKRVEPKSCDKTHTCPPCPAPEAAGGPSVFLFPPKPKDTLMISRTPEVTCVVVDVSHEDPEVKFNWYVDGVEVHNAKTKPREEQYNSTYRVVSVLTVLHQDWLNGKEYKCKVSNKALPAPIEKTISKAKGQPREPQVYTLPPSREEMTKNQVSLTCLVKGFYPSDIAVEWESNGQPENNYKTTPPVLDSDGSFFLYSRLTVDKSRWQQGNVFSCSVMHEALHNHYTQKSLSLSPGK
VL 2: EIVLTQSPATLSLSPGERATLSCRASQSVSSYLAWYQQKPGQAPRLLIYDASNRATGIPARFSGSGSGTDFTLTISSLEPEDFAVYYCQQRSNWPRTFGQGTKVEIK
As for B3, the figures for the binding result in experiment [1] and in experiment [2] were “no binding (tested: coated at 7-30000 ng/mL)” and “binds”, respectively.

B4: bsIgG1-CD3×HER2-DAPS (IgG1-huCLB-T3/4×HER2-169 with D265A/P331S) (bispecific antibody)
heavy 1: EVQLVESGGGLVKPGGSLRLSCAASGFTFSSYGMFWVRQAPGKGLEWVATISRYSRYIYYPDSVKGRFTISRDNAKNSLYLQMNSLRAEDTAVYYCARRPLYGSSPDYWGQGTLVTVSSASTKGPSVFPLAPSSKSTSGGTAALGCLVKDYFPEPVTVSWNSGALTSGVHTFPAVLQSSGLYSLSSVVTVPSSSLGTQTYICNVNHKPSNTKVDKRVEPKSCDKTHTCPPCPAPELLGGPSVFLFPPKPKDTLMISRTPEVTCVVVAVSHEDPEVKFNWYVDGVEVHNAKTKPREEQYNSTYRVVSVLTVLHQDWLNGKEYKCKVSNKALPASIEKTISKAKGQPREPQVYTLPPSREEMTKNQVSLTCLVKGFYPSDIAVEWESNGQPENNYKTTPPVLDSDGSFLLYSKLTVDKSRWQQGNVFSCSVMHEALHNHYTQKSLSLSPGK
VL 1: EIVLTQSPATLSLSPGERATLSCSASSSVTYVHWYQQKPGQAPRLLIYDTSKLASGIPARFSGSGSGTDFTLTISSLEPEDFAVYYCFQGSGYPLTFGSGTKLEMR
heavy 2: QVQLVQSGAEVKKPGASVKVSCKASGYTFTNYGISWVRQAPGQGLEWMGWLSAYSGNTIYAQKLQGRVTMTTDTSTTTAYMELRSLRSDDTAVYYCARDRIVVRPDYFDYWGQGTLVTVSSASTKGPSVFPLAPSSKSTSGGTAALGCLVKDYFPEPVTVSWNSGALTSGVHTFPAVLQSSGLYSLSSVVTVPSSSLGTQTYICNVNHKPSNTKVDKRVEPKSCDKTHTCPPCPAPELLGGPSVFLFPPKPKDTLMISRTPEVTCVVVAVSHEDPEVKFNWYVDGVEVHNAKTKPREEQYNSTYRVVSVLTVLHQDWLNGKEYKCKVSNKALPASIEKTISKAKGQPREPQVYTLPPSREEMTKNQVSLTCLVKGFYPSDIAVEWESNGQPENNYKTTPPVLDSDGSFFLYSRLTVDKSRWQQGNVFSCSVMHEALHNHYTQKSLSLSPGK
VL 2: EIVLTQSPATLSLSPGERATLSCRASQSVSSYLAWYQQKPGQAPRLLIYDASNRATGIPARFSGSGSGTDFTLTISSLEPEDFAVYYCQQRSNWPRTFGQGTKVEIK
B4: the binding result in experiment [1] is “no binding (tested: coated at 7-30000 ng/mL)”; in experiment [2], “binds”.
